According to PMC12377726 (Proceedings of the National Academy of Sciences of the …, 2025):

Biological target: eOD-GT8 (engineered outer domain germline-targeting version 8), monomer (HIV-1 gp120 engineered outer domain, …)

| Binder | binding result |
| --- | --- |
| G001_gp1_V06_VRC01c_2021-0003 (antibody, V domains shown) VH: QVQLVQSGAEVKKPGASVKVSCKASGYTFTGYYIHWVRQAPGQGLEWMGWINPNSGGTNYAQKFQGWVTMTRDTSISTAYMELRRLRSDDTAVYYCARVKDYYDSIGGWYFDLWGRGTLVTVSS VL: not shown | binds |
| G001_gp1_V06_VRC01c_2021-0007 (antibody, V domains shown) VH: QVQLVQSGAEVKKPGASVKVSCKASGYTFTGSYMHWVRQAPGQGLEWMGWINPNSGGTNYAQKFQGWVTMTRDTSISTAYMELSRLRSDDTAVYYCATASSGSYYWYFDLWGRGTLVTVSS VL: EIVMTQSPATLSVSPGERATLSCRASQSVSSNLAWYQQKPGQAPRLLIYGASTRATGIPARFSGSGSGTEFTLTISSLQSEDFAVYYCQQYETFGQGTKVEIK | binds |
| G001_gp1_V06_VRC01c_2021-0012 (antibody, V domains shown) VH: not shown VL: EIVMTQSPATLSVSPGERATLSCRASQSFSSNLAWYQQKSGQAPRLLIYGASTRATGIPARFSGSGSGTEFTLTISSLQSEDFAVYYCQQYHTFGPGTKVDIK | binds |
| G001_gp1_V06_VRC01c_81 (antibody, V domains shown) VH: not shown VL: EIVMTQSPATLCVSPGERATLSCRASQSVSSNLAWYQQKPGQAPRLLIYGASTRATGIPARFSGSGSGTEFTLTISSLQSEDFAVYYCQQYNNFGQGTKVEIK | binds |
| G001_gp1_V06_VRC01c_82 (antibody, V domains shown) VH: not shown VL: EIVMTQSPATLSVSPGERATLSCRASQSVSSNLAWYQQKPGQAPRLLIYGASTRATGIPARFSGSGSGTEFTLTISSLQSEDFAVYYCQQYETFGGGTKVEIK | binds |
| G001_gp1_V06_VRC01c_2021-0014 (antibody, V domains shown) VH: not shown VL: EIVMTQSPATLSVSPGERATLSCRASQSVSSNLAWYQQKPGQAPRLLIYGASTRATGIPARFSGSGSGTEFTLTISSLQSEDFAVYYCQQYGTFGQGTKVEIK | binds |
| G001_gp1_V06_VRC01c_2021-0022 (antibody, V domains shown) VH: not shown VL: EIVMTQSPATLSVSPGERATLSCRASQSVSSNLAWYQQKPGQAPRLLIYGASTRATGIPARFSGSGSGTEFTLTISSLQSEDFAVYYCQQYNNFGQGTRLEIK | binds |
| G001_gp1_V06_VRC01c_2021-0023 (antibody, V domains shown) VH: QVQLVQSGAEVKKPGASVKVSCKASGYTFTDYYIHWVRQAPGQGLEWMGWINPNSGGTNYAQKFQDWVTMTRDTSITTAYMELSRLRSDDTAVYYCARGVRYSSSWYFGYWGQGTLVTVSS VL: QSALTQPASVSGSPGQSITISCTGTSSDVGGYNYVSWYQQHPGKAPKLMIYDVSNRPSGVSNRFSGSKSGNTASLTISGLQTEDEADYYCSSYEVFGTGTKVTVL | binds |
| G001_gp1_V06_VRC01c_76 (antibody, V domains shown) VH: QVHLVQSGAEVKKPGASVKVSCKASEYTFSDYYMHWVRQAPGQGLEWMGWINPNSGGTNYAQKFQGRVTMTRDTSISTAYMELSRLRSDDTAVYYCATRGTGRYSYGSGTFYDYWGQGTLVTVSS VL: not shown | binds |
| G001_gp1_V06_VRC01c_2021-0005 (antibody, V domains shown) VH: not shown VL: DIQMTQSPSTLSASVGDRVTITCRASQSISSWLAWYQQKPGKAPKLLIYKASSLESGVPSRFSGSGSGTEFTLTISSLQPDDFATYYCQQYETFGQGTKVEIK | binds |
| G001_gp1_V06_VRC01c_2021-0015 (antibody, V domains shown) VH: not shown VL: DIQMTQSPSTLSASVGDRVTITCRASQSISSWLAWYQQKPGKAPKLLIYKASSLESGVPSRFSGSGSGTEFTLTISSLQPDDFATYYCQQWETFGQGTKVEIK | binds |
| G001_gp1_V06_VRC01c_2021-0030 (antibody, V domains shown) VH: not shown VL: DIQMTQSPSTLSASVGDRVTITCRASQSISSWLAWYQQKPGKAPKLLIYKASSLESGVPSRFSGSGSGTEFTLTISSLQPDDFATYYCQQYATFGQGTKVEIK | binds |
| G001_gp1_V06_VRC01c_2021-0018 (antibody, V domains shown) VH: not shown VL: DIQMTQSPSTLSASVGDRVTITCRASQSISSWLAWYQQKPGKAPKLLIYKASSLESGVPSRFSGSGSGTEFTLTISSLQPDDFATYYCQQYETFGQGTKVEIK | binds |
| G001_gp1_V06_VRC01c_2021-0027 (antibody, V domains shown) VH: not shown VL: QSVLTQPPSVSGAPGQRVTISCTGSSSNIGAGYDVHWYQQLPGTAPKLLIYGNSNRPSGVPDRFSGSKSGTSASLAITGLQAEDEADYYCQSYEVFGGGTKLTVL | binds |
| G001_gp1_V06_VRC01c_79 (antibody, V domains shown) VH: not shown VL: EIVLTQSPGTLSLSPGERATLSCRASQSSSHLAWYQQKHGQAPRLLIYGASSRATGIPDRFSGSGSGTDFTLTISRLEPEDFAVYHCQQYETFGQGTKVEIK | binds |
| G001_gp1_V06_VRC01c_2021-0011 (antibody, V domains shown) VH: QVQLVQSGAEVKKPGASVKVSCKASGYTFTGYYLHWVRQAPGQGLEWMGWINPNSGGTNYAQKFQGWVTMTRDTSISTAYMELSRLRSDDTAVYYCAVKDLDTMVRGGAFVFWGQGTMVTVSS VL: DIQLTQSPSFLSASVGDRVTITCRASQGISSYLAWYQQKPGKAPKLLIYAASTLQSGVPSRFSGSGSGTEFTLTISSLQPEDFATYYCQQLNSFGGGTKVEIK | binds |

| Binder | binding result |
| --- | --- |
| G001_LD_V05_VRC01c_17 (antibody, V domains shown) VH: not shown VL: DIQMTQSPSSLSASVGDRVTITCQASQDISNYLNWYQQKPGKAPKLLIYDASNLETGVPSRFSGSGSGTDFTFTISSLQPEDIATYYCQQYEFFGGGTKVEIK | binds |
| G001_LD_V05_VRC01c_29 (antibody, V domains shown) VH: not shown VL: DIQMTQSPSSLSASVGDRVTITCQASQDISNYLNWYQQKPGKAPKLLIYDASNLETGVPSRFSGSGSGTDFTFSISSLQPDDIATYYCQQYEGFGPGTKVDIK | binds |
| G001_gp1_V06_VRC01c_2021-0006 (antibody, V domains shown) VH: not shown VL: DIQMTQSPSSLSASVGDRVTITCQASQDINNYLNWYQQKPGKAPKLLIYDASNLETGVPSRFSGSGSGTDFTFTISSLQPEDIATYYCQQYETFGQGTRLEIK | binds |
| G001_LD_V05_VRC01c_20 (antibody, V domains shown) VH: not shown VL: DIQMTQSPSSLSASVGDRVTITCQASQDISNYLNWYQQKPGKAPKLLIYDASNLETGVPSRFSGSGSGTDFTFTISSLQPEDIATYYCQQYDFFGGGTKVEIK | binds |
| G001_gp1_V06_VRC01c_2021-0020 (antibody, V domains shown) VH: not shown VL: DIQMTQSPSSLSASVGDRVTITCQASQDISNFLNWFQQKPGKAPKLLIYDASNLETGVPSRFSGSGSGTDFTFTISSLQPEDIATYYCQQYDNFGPGTKVDIK | binds |
| G001_gp1_V06_VRC01c_2021-0004 (antibody, V domains shown) VH: not shown VL: DIQMTQSPSSLSASVGDRVTITCQASQDISNYLNWYQQKPGKAPKLLIYDASNLETGVPSRFSGSGSGTDFTFTISSLQPEDIATYYCQQYNTFGGGTKVEIK | binds |
| G001_gp1_V06_VRC01c_2021-0008 (antibody, V domains shown) VH: not shown VL: DIQMTQSPSSLSASVGDRVTITCQASQDISNYLNWYQQKPGKAPKLLIYDASNLQTGVPSRFSGSGSGTDFTFTISSLQPEDIATYYCQQYDFFGGGTKVEIK | binds |
| G001_LD_V05_VRC01c_30 (antibody, V domains shown) VH: not shown VL: DIQMTQSPSSLSTSVGDRVTITCQASQDITNYLNWYQQKPGKAPKLLIYDASNLETGVPSRFSGSGSGTDFTFTISSLQPEDIATYYCQQYDNFGGGTKVEIK | binds |
| G001_LD_V05_VRC01c_21 (antibody, V domains shown) VH: not shown VL: DIQMTQSPSSLSASVGDRVTITCQASQDISNYLNWYQQKPGKAPKLLIYDASNLETGVPSRFSGSGSGTDFTFTISILQPEDTATYYCQQYDTFGPGTKVDIK | binds |
| G001_gp1_V06_VRC01c_2021-0021 (antibody, V domains shown) VH: QVQLVQSGAEVKKPGASVKVSCKASGYTFTGDYMHWVRQAPGQGLEWMGWINPNSGGTNYAQKFEGWVTMTRDTSISTAYMELSRLRSDDTAVYYCARTPYSSSWLFNYWGQGTLVTVSS VL: DIQMTQSPSSLSASVGDRVTITCQASQDISNFLNWYQQKPGKAPKLLIYDASNLETGVPSRFSGSGSGTNFTFTISSLQPEDIATYYCQQYDLFGPGTKVDIK | binds |
| G001_gp1_V06_VRC01c_2021-0010 (antibody, V domains shown) VH: QVQLVQSGAEVKKPGASVKVSCKASGYTFTGYYMQWMRQAPGQGLEWMGWINPNSGGTNYAQKFQGWVTMTRDTSISTVYMELSRLRSDDTAVYYCARGFTNWNLDYWGQGTLVTVSS VL: EIVLTQSPGTLSLSPGERATLSCRASQSVSSSYLAWYQQKPGQAPRLLIYGASSRATGIPDRFSGSGSGTDFTLTISRLEPEDFAMYYCQQYETFGQGTKVEIK | binds |
| G001_gp1_V06_VRC01c_2021-0028 (antibody, V domains shown) VH: not shown VL: EIVLTQSPGTLSLSPGERATLSCRASQSVSGSYLAWYQQKPGQAPRLLIYGSSSRATGIPDRFSGSGSGTDFTLTISRLEPEDFAVYYCQQYETFGQGTKVEIK | binds |
| G001_gp1_V06_VRC01c_2021-0019 (antibody, V domains shown) VH: QVQLVQSGAEVKKPGASVKVSCKASGYTFTGYYMHWVRQAPGQGLEWMGWINPNSGGTNYAQKFQDWVTMTRDTSISTAYMELRRLRSDDTAVYYCARPSYRSGWDMWYWGQGTLVTVSS VL: EIVLTQSPGTLSLSPGERATLSCRASQSVSSSYLAWYQQKPGQAPRLLIYGASSRATGIPDRFSGSGSGTDFTLTISRLEPEDFAVYYCQQYEGFGPGTKVDIK | binds |
| G001_gp1_V06_VRC01c_2021-0026 (antibody, V domains shown) VH: not shown VL: EIVLTQSPGTLSLSPGERATLSCRACQSVSSSYLAWYQQKPGQAPRLLIYGASSRATGIPDRFSGSGSGTDFTLTISRLEPEDFAVYYCQQYETFGQGTKLEIK | binds |
| G001_gp1_V06_VRC01c_2021-0016 (antibody, V domains shown) VH: QVQLVQSGAEVKKPGASVTVSCKASGYTFTGYYMHWVRQAPGQGLEWMGWINPTSGGTNYGQKFQGRVTMTRDTSISTAYMELSRLRSDDTAVYYCAITTVTSTWAFDIWGQGTMVTVSS VL: EIVLTQSPGTLSLSPGERATLSCRASQSVSNNYLAWYQQTPGQAPRLLIYGASSRATGIPDRFSGSGSGTDFTLTISRLEPEDFAVYYCQQYETFGQGTKVEIK | binds |
| G001_gp1_V06_VRC01c_2021-0017 (antibody, V domains shown) VH: not shown VL: EIVLTQSPGTLSLSPGERATLSCRASQSVSSSYLAWYQQKPGQAPRLLIYGASSRATGIPDRFSGSGSGTDFTLTISRLEPEDFAVYYCQQYEFFGPGTKVDIK | binds |
